In paper PMC10643566, “Insights into the mechanism of SARS-CoV-2 main protease autocatalytic maturation from model precursors” (Communications Biology, 2023) one finds Kd data, which are given here for two substances.

Assay [1] deals with mature MPro^E290A (SARS-CoV-2). Briefly: enzyme kinetics (K_dimer from kcat/Km and the slope of rate vs the square of the protein concentration); FRET substrate at 200 µM, buffer B (25 mM Tris-HCl, pH 7, 50 mM NaCl, 1 mM TCEP), 28 °C; kcat/Km determined with equimolar GC373; dimer to monomers.
In assay [2] the target is mature MPro^R298A (SARS-CoV-2). The assay is described as above.

By Kd is commonly meant the equilibrium constant for the complex coming apart. Read a high Kd as weaker binding.

In assay [1], mature MPro^E290A (enzyme) showed an equilibrium dissociation constant (Kd) of 353 µM.
The substance mature MPro^R298A (enzyme) gave a Kd in assay [2] of 7.13 µM.
